Data on 2 molecules can be found in patent publication US20250382381A1 (CORNELL UNIVERSITY, published 2025).

The target of assay [1] is T1, human ART1 expressed on HEK293 cells (human, UniProt P52961 23-295).
T1 sequence: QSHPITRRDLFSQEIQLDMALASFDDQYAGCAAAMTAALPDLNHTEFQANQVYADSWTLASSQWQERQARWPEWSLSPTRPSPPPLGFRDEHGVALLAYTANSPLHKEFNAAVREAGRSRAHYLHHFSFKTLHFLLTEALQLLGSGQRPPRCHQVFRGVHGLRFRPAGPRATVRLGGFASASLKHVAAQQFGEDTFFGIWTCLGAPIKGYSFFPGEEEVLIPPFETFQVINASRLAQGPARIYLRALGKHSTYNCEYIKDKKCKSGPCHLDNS
Nature of the assay: cell-based or functional assay.

The target of assay [2] is T2, purified recombinant human ART1 (human, UniProt P52961 23-295).
T2 construct: Produced in HEK293 cells and purified; also called huART1; human ADP-ribosyltransferase 1
T2 sequence: T1 sequence
Nature of the assay: SPR; antibody captured on anti-mouse Fc surface, ART1 as analyte, 1:1 kinetic fit. The procedure: (§1) FIGS. 12A-12D. […] Sensorgrams are double-reference subtracted using a control surface and blank injections. Affinity constants were determined by kinetic fit using a 1:1 binding model.
In general terms: SPR reads the build-up and loss of mass on a sensor chip optically.

Assay [3] deals with T3, purified recombinant mouse ART1 (mouse, UniProt Q60935 23-290).
T3 construct: Produced in HEK293 cells and purified; also called moART1; murine ART1
T3 sequence: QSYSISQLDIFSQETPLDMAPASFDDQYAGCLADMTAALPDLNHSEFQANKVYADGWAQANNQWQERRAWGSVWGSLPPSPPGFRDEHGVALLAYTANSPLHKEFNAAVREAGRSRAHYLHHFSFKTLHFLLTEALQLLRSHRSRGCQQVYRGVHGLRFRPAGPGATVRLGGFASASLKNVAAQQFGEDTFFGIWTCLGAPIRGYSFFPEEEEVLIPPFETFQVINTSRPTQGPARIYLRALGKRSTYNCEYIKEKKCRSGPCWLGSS
Described as above. The procedure:
as §1

Assay [4] deals with T1, human ART1 expressed on HEK293 cells. Nature of the assay: panel 'ART1 Ab binding' on HEK293 cells transfected with ART1; y axis GMFI, Ratio to 2nd Only, x axis Log[Ab], nM (the legend calls it a NAD-Glo assay); the curve rises from about 3.3 to a plateau of about 13.
The target of assay [5] is T2, purified recombinant human ART1. Nature of the assay: sensorgrams R [RU] against time [s] with fitted lines, panel '14G01 Binding huART1', huART1 at 100.0, 25.00, 12.50, 6.250, 3.125, 1.563 nM; format not told for this figure (FIG. 12 legend: SPR, antibody captured on anti-mouse Fc, 1:1 fit).
Assay [6] has as its target T3, purified recombinant mouse ART1. Nature of the assay: sensorgrams R [RU] against time [s] with fitted lines, panel '14G01 Binding moART1', moART1 at 200.0, 100.0, 25.00, 12.50, 3.125, 1.563 nM; format not told for this figure (FIG. 12 legend: SPR, antibody captured on anti-mouse Fc, 1:1 fit).

B1: 22C12 monoclonal antibody (parental, mouse light chain) (antibody, V domains shown)
VH: QVTLKESGPVLVKPTETLTLTCTVSGFSLSNARMGVSWIRQPPGKALEWLAHIFSNDEKSYSTSLKSRLTISKDTSKSQVVLTMTNMDPVDTATYYCARIYGGDSWGYFDNWGQGTLVTVSS
VL: QIVLTQSPAIMSASLGEKVTMTCSASSSVSYMHWYQQKSGTSPKRWIYDTSKLASGVPARFSGSGSGTSYSLTISSMEAGDAATYYCQQWSSNPPTFGAGTKLELK
notes: Purified from hybridoma supernatant (AlivaMab Mouse); VH is human and VK is mouse; The antibody was captured on an anti-mouse Fc surface in SPR; also called 22C12 (mLC); mLC22C12
In the case of B1, the “IC50 Cell Surface ADP-Ribosylation” value in assay [1] came to 14 nM. Moreover, the Kd in assay [2] is 0.161 nM; in assay [3], 0.439 nM. Further, the EC50 in assay [4] was 0.75 nM.

B2: 14G01 monoclonal antibody (antibody, V domains shown)
VH: QVQLQESGPGLVKPSETLSLTCTVSGGSISSYYWSWIRQPAGKGLEWIGRISTSGFTNYNPSLKSRVTMSVDSSKNQFSLKLSSLTAADTAVYYCARDGWGRVFDIWGLGTMVTVSS
VL: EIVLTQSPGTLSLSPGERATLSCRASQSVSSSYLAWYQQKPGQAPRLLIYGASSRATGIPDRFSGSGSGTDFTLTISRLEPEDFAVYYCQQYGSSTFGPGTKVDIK
notes: Purified from hybridoma supernatant; VH and VK are human; The antibody was captured on an anti-mouse Fc surface in SPR
As for B2, the “IC50 Cell Surface ADP-Ribosylation” value in assay [1] came to 28 nM. Also, the equilibrium dissociation constant (Kd) in assay [2] was determined as 4 nM; in assay [3], 6 nM; in assay [5], 3.8 nM; in assay [6], 6.2 nM.

As a reminder, the Kd is the free concentration of one partner at which half of the binding sites on the other are occupied at equilibrium, for simple one-to-one binding. Usually EC50 stands for the concentration giving half of the maximal effect.
